Assay [1] addresses T1, RBD mutant derived from SARS-CoV-2 strain B.1.351 (South Africa) (SARS-CoV-2, B.1.351 (RBD K417N, E484K, …, K417N | E484K | N501Y)).
T1 construct: also called RBD_(B.1.351); source: Expi293 cells, purified
Nature of the assay: BLI. To be noted: both partners purified.

Assay [2] addresses T2, RBD mutant derived from SARS-CoV-2 strain B.1.1.7 (UK) (SARS-CoV-2, B.1.1.7 (RBD N501Y), N501Y).
T2 construct: also called RBD_(B.1.1.7); source: Expi293 cells, purified
The assay is described as follows: BLI. To be noted: both partners purified.

A word on the Kd: it is the free concentration of one partner at which half of the binding sites on the other are occupied at equilibrium, for simple one-to-one binding. A higher Kd goes with weaker binding.

B1: nanobody NM1226 (VHH)
VHH: QVQLVESGGGSVQPGGSLRLSCLGSGSLDYYAIGWFRQAPGKEREGVSCIASSGDRTIYADSVKGRFTISRDYGKNTVYLQMNSLKPEDTAMYYCAALQGSYYYTGFVANEYDYWGQGAPVTVSS
Take B1: the Kd in assay [1] is about 5.5 nM; in assay [2], about 5.4 nM.

Source of the values: PMC8097376 (EMBO Reports, 2021).
